The data set can be described thus: yeast display, Sf9 membrane polyspecificity reagent, FACS + sequencing; frameworks hold sequencing errors. A digest of the protocol: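 Polyreactivity labels are assigned by the sorting gate from which each nanobody was recovered. The gates were low and high (top ~1%), set on anti-HA fluorescence for expression and streptavidin fluorescence for reagent binding. Before sorting, galactose-induced (36–48 hours) yeast display cells were stained for 1 hour at 4 °C with 10% biotinylated, detergent-solubilized Sf9 membrane reagent.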
Turning to “QVQLVESGGGLVQAGGSLRLTCAASGLTFFYYAMGWYRQAPGKERELVAGISRSGGSTYYADSVKGRFTISRDYAKNTVYLQMNSLKPEDTAVYYCAKRTLVASYIYREGEYWGQGTQVTVSS”, the “polyreactivity (PSR sort gate)” value is listed as “high polyreactivity”.

For “QVQLVESGGGLVQAGGSLRLTCAASGLTFPVYAKGWYRQAPGKEREFVAAISYSAGRTYYADSVKGRFTISRDNAKNTVYLQMNRLKPEDTAVYYCAAATYYSIYDYWGQGTQVTVSS”, the “polyreactivity (PSR sort gate)” value is given as “high polyreactivity”.

For the sequence “QVQLVESGGGLVQAGGSLRLTCAASGLTFYYYAMGRYRQATGKETELVASISTGGKKYYADSVKGRFTISRDNANNTVYLQMNSLKPEDTAVYYCAADRYDSSQFYYWGQGTQLTVSS”, the “polyreactivity (PSR sort gate)” value is reported as “low polyreactivity”.

As to “QVQLVESGGGLVQAGGSLRLTCAASGNIFDLYAMGWYRQAPGTERELVASITSDGITYYADSVKGRFTISRDNAKNTVYLQMNSLKPEDSAVYYCAVVRSYRYLPRGDYWGQGTQVTVSS”, the “polyreactivity (PSR sort gate)” value is given as “low polyreactivity”.

For “QVQLVESGGGLVQAGGSLRLTCAASGNNYLDNAMGWYRQAPGKERELVASITRSGSRTYYADSVKGRFTISRDNAKNTGYFQMNSLKPEDTAVFYCNAGVNERQYDYWGLGTQVTVSS”, the “polyreactivity (PSR sort gate)” value is “high polyreactivity”.

As for “QVQLVESGGGLVQAGGSLRLTCAASGRIFFYYSMGWYRQAPGKERELVAAIRSGGSTNYADSVKGRFTISRDNAKNTVYLQMYILKPEDTAGYYSAAHPTRYYTPRYYYWGLGTQVTVSS”, the “polyreactivity (PSR sort gate)” value is “high polyreactivity”.

With “QVQLVESGGGLVQAGGSLRLTCAASGRIFGRNTMGWYRQAPGKEMELVAAISSSGGSTRYADSVKGRFTISRDNAKNTVYIQMNSLKPEDTALYYCAAVRNRHGYDYWGKGTQVTVSS”, the “polyreactivity (PSR sort gate)” value is recorded as “high polyreactivity”.

Regarding “QVQLVESGGGLVQAGGSLRLTCAASGRIFITNAMGWYSQAPGKEREMVAVISYIGGRTYYADSVKGRFTISRDNAKNTVYLQMNSLKPEDTAVYYCAARRSRPTYYSTGVNYWGQGTQVTVSS”, the “polyreactivity (PSR sort gate)” value is recorded as “high polyreactivity”.

With “QVQLVESGGGLVQAGGSLRLTCAASGRIFIYYAMGWYRQAPGKERELVAAISWGGGRTYYADSVKGRFTISRDNAKNTVYLQMNSLKPEDTAVYYCAAGVYTGQHEYDYWGQGTQVTVSS”, the “polyreactivity (PSR sort gate)” value was “low polyreactivity”.

For the sequence “QVQLVESGGGLVQAGGSLRLTCAASGRIFLINPMGWYRQAPGKDRELVAGIRGRTGSTNYADSVKGRFTISRDNAKNTVYLQMNRLKPEDTAVYYCAARFSVQDGGPYAYDYWGQGTQVTVSS”, the “polyreactivity (PSR sort gate)” value is “low polyreactivity”.

Consider “QVQLVESGGGLVQAGGSLRLTCAASGRIFNIYAMGWYRQAPGKERELVAAISVSGTRTYYADSVKGRFTISRDNAKNTVYLHMNSLKPEDTAVYYCAADSYGGVWTEHMYYWGQGTQVTVSS”, for which the “polyreactivity (PSR sort gate)” value is “low polyreactivity”.

Turning to “QVQLVESGGGLVQAGGSLRLTCAASGRIFRTYAMGWYRQAPGKERELVAAISGRGGNTYYADSVKGRFTISRDNAKNTVYLQMNSLKPEDTAVYYCAASKPSRDTQQRWVYAGYDYWGQGTQVTVSS”, the “polyreactivity (PSR sort gate)” value was “high polyreactivity”.

In the case of “QVQLVESGGGLVQAGGSLRLTCAASGRIFSANAMGWYRKAPGKERELVATISTGGGRTYYADSVKGRFTISRDYAKNTVYLQMNSLKAEDTAVYYCNDTGNYARFLYYSWCQGTQVTVSS”, the “polyreactivity (PSR sort gate)” value was “high polyreactivity”.

Take “QVQLVESGGGLVQAGGSLRLTCAASGRIFSANAMGWYRLAPGKERELVAGIDSGGSTNYADSVKGRFTISGDNAKNTVYLQMNSLKPEDTAVYYCAKYRGRGNTYNGGYDYWGQVTQVTVSS”: the “polyreactivity (PSR sort gate)” value is reported as “low polyreactivity”.

As to “QVQLVESGGGLVQAGGSLRLTCAASGRIFSHNTMGWYRQAPGKERELVAAISGGGGRTYYADSVKGRFTISRDNAKNTVYLQMKSLKPEDTAVYYCAAVRVSYRSLSKSYYWGQGTQVTVSS”, the “polyreactivity (PSR sort gate)” value is given as “high polyreactivity”.

Regarding “QVQLVESGGGLVQAGGSLRLTCAASGRIFTRYAMGWYRQAPGKERELVAAISYGGGGTYYADSVKGRFTISRDNAKNTVYLQMNSLKPEVTSVYYCAADPGYYSWGSSQDDYWGQGTQVTVSS”, the “polyreactivity (PSR sort gate)” value is listed as “low polyreactivity”.

With “QVQLVESGGGLVQAGGSLRLTCAASGRIFYGYTMGWYRKAPGKERELVAAITRRGGRTYYADSVKGRFTISRDNAKNTVYLQMNCLKPEDTAVYYCAATRSGEYDYWGQGTQVTVSS”, the “polyreactivity (PSR sort gate)” value is recorded as “high polyreactivity”.

Regarding “QVQLVESGGGLVQAGGSLRLTCAASGRIIIGYVMGWYRQAPGKERELVATISYSGGSTYADSVKGRFTISRDNAKNTVYLQMNSLKPEDTAVYYCAARPYYRYYRYPYGYWGQGTQVTVSS”, the “polyreactivity (PSR sort gate)” value is “high polyreactivity”.

As to “QVQLVESGGGLVQAGGSLRLTCAASGRILGYNDMGWYRHAPGKERELVPTSSGTSTYYADSVKGRFTISRDNAKNTVYLQMNSLKPEVTAVYYCNTDYVITLPAYDYWGQGTQVTVSS”, the “polyreactivity (PSR sort gate)” value was “low polyreactivity”.

On to “QVQLVESGGGLVQAGGSLRLTCAASGRILLVNAMGWSRQAPGKERELVAAITSGGSTNYADSVKGRFTISRDNAKNTVYFQMNSLKPEDTAVYFCAATITLYRSRGRYGYWGQGTQVTASS”, for which the “polyreactivity (PSR sort gate)” value is “high polyreactivity”.

Turning to “QVQLVESGGGLVQAGGSLRLTCAASGRILTCYAMGWYRQEPGKERELVASINWRGGSTYYADSVKGRFTISRDNAKNTVYLQMNSLKPEDTAGYYCARYKYTRQTRVEYGYWGQGTQVTVSS”, the “polyreactivity (PSR sort gate)” value was “high polyreactivity”.

As for “QVQLVESGGGLVQAGGSLRLTCAASGRILVSYSMGWYRQAPGKERELVAAISRSGGSTYYADSVKGRFTISRDNAKNTVYLQMNSLKPEDTAVYYWNVYRFSRYDYWGQGTQVTVSS”, the “polyreactivity (PSR sort gate)” value is on record as “high polyreactivity”.

Turning to “QVQLVESGGGLVQAGGSLRLTCAASGRSFRRYAMGWYREAPGKERELVAAITWRGSSTYYADSVKGRFTISRDNAKNTVYLQMNSLKPEDTAVYYCAADIGYTYEYYYWGQGTQVTLSS”, the “polyreactivity (PSR sort gate)” value was “high polyreactivity”.

Turning to “QVQLVESGGGLVQAGGSLRLTCAASGRTFIVYAMGWYRQAPGKERELVAGITRGSTNYADSVKGRFTISRDNAKNTVYLQMNSLKPEDTAVYYCATEVYIWPWGTVYAFEYDYWGQGTQVTVSS”, the “polyreactivity (PSR sort gate)” value was “high polyreactivity”.

For the sequence “QVQLVESGGGLVQAGGSLRLTCAASGRTFNPYAMGWYRQAPGKERELVARIRGTGVSTYYADSVKGRFTISRDYAKNTVYLQMNSLKPEDTDVYYINAVATPVSDRWSYLSHGWYYYWGHGTQVTVSS”, the “polyreactivity (PSR sort gate)” value was “high polyreactivity”.

For the sequence “QVQLVESGGGLVQAGGSLRLTCAASGRTFNVNVMGWSRQAPGKERELVAAIRYTGGSTYADSVKGRFTISRDNAKNTVYLQMNSLKPEDTAVYYCNADTFFPFDHGMDYWGQGTQVTVSS”, the “polyreactivity (PSR sort gate)” value is “low polyreactivity”.

As for “QVQLVESGGGLVQAGGSLRLTCAASGRTFRANAMGWYRQATGKERELVAAISQRGGNTYYADSVKGRFTSSRDNAKNTVYFQMNSLKPEDTAVYYCAADITTYRRGRYEYEYWGQGTQVTVSS”, the “polyreactivity (PSR sort gate)” value is on record as “high polyreactivity”.

With “QVQLVESGGGLVQAGGSLRLTCAASGRTFRPYDMGWYRQAPGKQRELVATITTNGGSTYYADSVKGRFTISRDNAMNTVYLQMTSLKPEDTAGYYCATDNSWPTYHYDGGYYWGQGTQVTVSS”, the “polyreactivity (PSR sort gate)” value was “low polyreactivity”.

“QVQLVESGGGLVQAGGSLRLTCAASGRTFRSYTMGWYRQAPGKERELVAAISGSGGRTYYADYVKGRFTISRDNAKNNVYLQMNILKPEDTADYYCNKGFTDYHYYYWGQGTQVTVSS”: the “polyreactivity (PSR sort gate)” value is reported as “high polyreactivity”.

Regarding “QVQLVESGGGLVQAGGSLRLTCAASGRTFWRYGMGWYRPAPVKETELVAAITDSVDSTNYADSVKGRFTISRDNAKNTVYLQMNSLKPEDTAVYYCAASDVVFALNGYYPGEDDYWGQGTQVTVSS”, the “polyreactivity (PSR sort gate)” value is on record as “low polyreactivity”.

The values are drawn from the nanobody polyreactivity screen of Harvey et al. (2022).
